Measured values reported in patent publication US20220411531A1 (SUMGEN MAB BEIJING BIOTECH, published 2022).
Positions count from the first letter of the chain named. Values belong to the binder of their own block, whether it stands above or below them.

Experiments:
[1] = target: T1, MER-His (ACRO Biosystems) (UniProt Q12866 21-499, limits assumed); test: ELISA, MER-His coated at 1 µg/ml, anti-human IgG Fab-HRP, OD450
T1 construct: Bought reagent; not shown: His tag
T1 sequence (looked up): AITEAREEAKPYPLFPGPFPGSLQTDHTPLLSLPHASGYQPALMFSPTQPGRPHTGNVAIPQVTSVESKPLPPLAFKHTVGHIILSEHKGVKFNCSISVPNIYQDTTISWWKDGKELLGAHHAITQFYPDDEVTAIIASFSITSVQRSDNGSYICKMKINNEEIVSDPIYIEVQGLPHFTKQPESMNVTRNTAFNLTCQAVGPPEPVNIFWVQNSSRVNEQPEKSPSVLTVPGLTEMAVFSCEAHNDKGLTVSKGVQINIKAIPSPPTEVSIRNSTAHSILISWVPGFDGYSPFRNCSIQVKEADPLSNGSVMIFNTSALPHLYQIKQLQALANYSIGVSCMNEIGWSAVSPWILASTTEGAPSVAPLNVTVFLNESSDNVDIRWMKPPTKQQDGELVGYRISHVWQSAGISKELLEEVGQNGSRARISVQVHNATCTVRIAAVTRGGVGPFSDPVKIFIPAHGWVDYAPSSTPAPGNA
Protocol: AXL, TRYO3, and MER are all members of the TYRO3 receptor tyrosine kinase subfamily. To verify the recognition specificity of the antibodies 6G12M11, 6G12M21, 6G12M31 and 6G12M41, the binding ability of these antibodies to other members of the AXL family is tested by the ELISA method.
TYRO3-Fc (ACRO Biosystems), MER-His (ACRO Biosystems), and AXL-His (Sino Biological Inc.) each were coated at 1 μg/ml on an ELISA strip, which was held at 4° C. overnight. After the ELISA strips were washed with PBST, 10% fetal bovine serum was added to the ELISA strip, which was blocked for 1 hour at 37° C. Antibodies […], 6G12M21, 6G12M31 and 6G12M41 were added to react at 37° C. for 1 hour. After the ELISA strips were washed with PBST, horseradish peroxidase-labeled goat anti-human IgG Fab secondary antibodies (Goat Anti-Human IgG (Fab′)₂ (HRP), Abcam) were added to react for 30 minutes at 37° C. The ELISA strips were washed 5 times with PBST, and patted and dried on absorbent paper to remove residual droplets as much as possible. 100 μl of TMB (eBioscience, #85-00-420) was added to each well, and the ELISA strips were held for 1.5 min at room temperature (20±5° C.) in the dark. 100 μl of 2N H₂SO₄ stop solution was added to each well to terminate substrate reaction. The OD value was read at 450 nm by a microplate reader to analyze the binding ability of antibodies to the proteins.

[2] = target: T2, AXL-His (Sino Biological Inc., 6x His labels, molecular weight 47.5 Kda) (UniProt P30530-2 26-440, limits assumed); test: SPR (Biacore T-200), antibody captured on chip, AXL-His as analyte
T2 construct: Bought reagent; also called target antigen AXL-His; target antigen AXL; not shown: 6x His tag
T2 sequence (looked up): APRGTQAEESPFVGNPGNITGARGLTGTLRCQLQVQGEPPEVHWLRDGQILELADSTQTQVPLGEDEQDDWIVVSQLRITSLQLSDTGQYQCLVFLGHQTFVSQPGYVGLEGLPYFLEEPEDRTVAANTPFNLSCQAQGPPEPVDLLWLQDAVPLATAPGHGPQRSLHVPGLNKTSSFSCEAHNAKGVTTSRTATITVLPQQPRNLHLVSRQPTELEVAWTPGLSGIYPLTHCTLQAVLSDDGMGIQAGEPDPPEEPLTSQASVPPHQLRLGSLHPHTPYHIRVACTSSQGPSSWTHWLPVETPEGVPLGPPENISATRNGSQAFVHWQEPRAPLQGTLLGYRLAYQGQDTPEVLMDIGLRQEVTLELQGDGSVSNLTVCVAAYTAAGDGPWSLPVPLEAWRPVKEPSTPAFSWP
Protocol: In this test, the affinity of AXL-His to each of the antibodies 6G12M11, 6G12M21, 6G12M31, and 6G12M41 was detected by the surface plasmon resonance technology. The test instrument used was BIACOR biomacromolecule interaction instrument (GE Healthcare, T-200). The antibodies 6G12M11, 6G12M21, 6G12M31, and 6G12M41 were immobilized on the surface of a chip by an antibody capturing method, and with all the concentrations set to 0.5 μg/mL, were injected for 60 seconds at a flow rate of 10 μL/min. The prepared AXL-His (Sino Biological Inc., 6× His labels, molecular weight: 47.5 Kda) as a mobile phase was let to flow through the surface of the chip under 5 concentration gradients (8, 4, 2, 1, 0.5 μg/mL) respectively for interaction determination. The AXL-His underwent association for 120 s and dissociation for 1800 s at the flow rate of 30 μL/min.

- binding result [1]: no binding (tested: about 1 µg/mL)
- Kd [2]: 29.2 nM
- koff [2]: 0.00116 s⁻¹
- kon [2]: 39700 M⁻¹ s⁻¹
B1: antibody 6G12M31 (antibody, V domains shown)
VH: QVQLVQSGPGLVKPSQSLSLTCSVTGFSISSGYYWNWIRQFPGQKLEWMGYRSYDGSNNYDPSLKNRISITRDTSKNQFFLKLNSVTSEDTATYYCARGWLLHYTMDYWGQGTTVTVSS
VL: DIVMTQSPSSVSVTLGQSASISCRSSRSLLHSNGFTYLYWYLQKPGQSPQLLIYQMSNLASGVPDRFSGSGSGTDFTLKISRVEAEDVGVYYCGQNLELPLTFGGGTKLEIK

- binding result [1]: no binding (tested: about 1 µg/mL)
- Kd [2]: 11.7 nM
- koff [2]: 0.00114 s⁻¹
- kon [2]: 97400 M⁻¹ s⁻¹
B2: antibody 6G12M11 (antibody, human IgG1, kappa, V domains shown)
VH: B1 VH with S23A, D61N
VL: EIVMTQSPSSVSVTLGQSASISCRSSRSLLHSNGFTYLYWYLQKPGQSPQLLIYQMSNLASGVPDRFSGSGSGTDFTLKISRVEAEDVGVYYCGQNLELPLTFGGGTKLEIKR

- binding result [1]: no binding (tested: about 1 µg/mL)
- Kd [2]: 10.2 nM
- koff [2]: 0.00114 s⁻¹
- kon [2]: 112000 M⁻¹ s⁻¹
B3: antibody 6G12M21 (antibody, human IgG1, kappa, V domains shown)
VH: B1 VH with D61N
VL: B2 VL with E1D

- binding result [1]: no binding (tested: about 1 µg/mL)
- Kd [2]: 28.7 nM
- koff [2]: 0.00119 s⁻¹
- kon [2]: 41500 M⁻¹ s⁻¹
B4: antibody 6G12M41 (antibody, V domains shown)
VH: B1 VH with D61G
VL: B1 VL
